Assay results: patent publication US8022177B2, “Peptides and calcium regulation in mammalian cells” (The Board of Trustees of the University of Illinois, priority 2005, dated 2011)

B1: γ6 L43S: γ6 with leucine at position 43 substituted with serine (protein, UniProt Q9BXT2 1-260, looked up, variant L43S)
Voltage-dependent calcium …: MMWSNFFLQEENRRRGAAGRRRAHGQGRSGLTPEREGKVKLASLLAAVGATLAVLSVGTEFWVELNTYKANGSAVCEAAHLGLWKACTKRLWQADVPVDRDTCGPAELPGEANCTYFKFFTTGENARIFQRTTKKEVNLAAAVIAVLGLAVMALGCLCIIMVLSKGAEFLLRVGAVCFGLSGLLLLVSLEVFRHSVRALLQRVSPEPPPAPRLTYEYSWSLGCGVGAGLILLLGAGCFLLLTLPSWPWGSLCPKRGHRAT

Molecular target: T1, Cav3.1 (Homo sapiens, UniProt O43497)
T1 construct: expressed in transfected cells; host or cells: HEK-293, stably transfected
T1 sequence (O43497 whole entry): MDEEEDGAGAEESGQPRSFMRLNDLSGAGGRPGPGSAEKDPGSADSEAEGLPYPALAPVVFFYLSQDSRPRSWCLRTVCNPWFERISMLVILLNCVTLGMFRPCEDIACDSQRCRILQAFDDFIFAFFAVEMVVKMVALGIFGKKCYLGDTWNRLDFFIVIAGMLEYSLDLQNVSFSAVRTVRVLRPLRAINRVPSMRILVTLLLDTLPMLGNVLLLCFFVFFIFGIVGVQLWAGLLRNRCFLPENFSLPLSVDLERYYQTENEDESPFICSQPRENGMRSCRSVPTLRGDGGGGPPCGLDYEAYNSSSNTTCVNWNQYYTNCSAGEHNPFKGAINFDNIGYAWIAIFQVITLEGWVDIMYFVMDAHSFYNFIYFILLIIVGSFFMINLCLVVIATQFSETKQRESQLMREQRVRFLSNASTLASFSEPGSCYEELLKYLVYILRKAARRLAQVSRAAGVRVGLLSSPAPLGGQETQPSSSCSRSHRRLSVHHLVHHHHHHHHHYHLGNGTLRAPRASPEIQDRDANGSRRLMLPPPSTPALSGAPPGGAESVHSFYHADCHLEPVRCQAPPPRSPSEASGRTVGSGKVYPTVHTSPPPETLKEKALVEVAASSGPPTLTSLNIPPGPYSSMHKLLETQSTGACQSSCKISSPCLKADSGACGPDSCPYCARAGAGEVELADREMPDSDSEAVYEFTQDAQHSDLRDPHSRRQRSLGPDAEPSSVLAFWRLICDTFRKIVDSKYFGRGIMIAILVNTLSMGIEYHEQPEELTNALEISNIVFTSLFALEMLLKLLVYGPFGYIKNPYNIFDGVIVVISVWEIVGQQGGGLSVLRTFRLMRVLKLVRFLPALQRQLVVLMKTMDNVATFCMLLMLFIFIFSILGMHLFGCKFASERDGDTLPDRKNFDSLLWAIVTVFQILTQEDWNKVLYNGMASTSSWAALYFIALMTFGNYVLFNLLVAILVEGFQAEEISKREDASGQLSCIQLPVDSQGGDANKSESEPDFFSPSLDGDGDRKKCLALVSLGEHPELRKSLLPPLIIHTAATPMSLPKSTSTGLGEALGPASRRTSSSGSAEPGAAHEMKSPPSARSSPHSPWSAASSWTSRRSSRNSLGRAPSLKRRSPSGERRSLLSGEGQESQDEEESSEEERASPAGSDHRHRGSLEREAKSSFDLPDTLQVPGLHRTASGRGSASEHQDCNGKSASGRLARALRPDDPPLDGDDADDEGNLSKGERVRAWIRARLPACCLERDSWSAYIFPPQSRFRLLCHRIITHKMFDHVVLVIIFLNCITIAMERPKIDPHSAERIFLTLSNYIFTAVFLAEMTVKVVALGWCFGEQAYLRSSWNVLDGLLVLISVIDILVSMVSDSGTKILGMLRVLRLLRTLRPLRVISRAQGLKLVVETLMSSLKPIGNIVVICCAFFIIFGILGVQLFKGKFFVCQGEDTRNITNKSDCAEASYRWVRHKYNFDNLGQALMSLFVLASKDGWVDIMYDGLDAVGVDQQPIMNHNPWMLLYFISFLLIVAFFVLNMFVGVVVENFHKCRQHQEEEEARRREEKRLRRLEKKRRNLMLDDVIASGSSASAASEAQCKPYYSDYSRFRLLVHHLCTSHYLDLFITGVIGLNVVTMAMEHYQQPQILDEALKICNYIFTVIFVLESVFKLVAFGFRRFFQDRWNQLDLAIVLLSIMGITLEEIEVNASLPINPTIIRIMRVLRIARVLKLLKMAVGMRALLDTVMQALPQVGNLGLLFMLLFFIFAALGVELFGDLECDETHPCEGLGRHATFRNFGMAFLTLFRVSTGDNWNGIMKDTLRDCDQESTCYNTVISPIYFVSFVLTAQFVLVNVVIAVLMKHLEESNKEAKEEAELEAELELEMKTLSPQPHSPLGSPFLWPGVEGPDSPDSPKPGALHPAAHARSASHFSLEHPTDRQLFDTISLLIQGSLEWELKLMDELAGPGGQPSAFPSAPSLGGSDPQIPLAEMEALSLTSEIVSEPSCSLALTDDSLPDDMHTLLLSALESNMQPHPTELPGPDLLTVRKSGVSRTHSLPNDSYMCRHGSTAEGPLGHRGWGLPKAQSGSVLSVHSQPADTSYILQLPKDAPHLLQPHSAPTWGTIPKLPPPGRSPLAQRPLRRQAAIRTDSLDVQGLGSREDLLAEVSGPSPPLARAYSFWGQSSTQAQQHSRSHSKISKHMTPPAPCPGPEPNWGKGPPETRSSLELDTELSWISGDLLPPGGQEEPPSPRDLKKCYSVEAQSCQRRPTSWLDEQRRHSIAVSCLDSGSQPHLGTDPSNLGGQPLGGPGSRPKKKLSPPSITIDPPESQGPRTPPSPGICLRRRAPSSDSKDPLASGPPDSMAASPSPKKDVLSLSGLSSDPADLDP
Assay: Whole-cell patch clamp of Cav3.1 current in Cav3.1-HEK cells transfected with γ6, γ4, their first transmembrane domains or point mutants (Example 3)
Assay type: cell-based
Design: Activation K / Inactivation K: unit not given here
Settings: for Peak current density: Cav3.1-HEK cells, control 48.43±2.62; for Calcium current density (unit not given): Example 2, control −48.39+/−2.6, fusion series control −46.9+/−5; for Activation K / Activation V½ / Deactivation τ @−100 mV / Inactivation K / Inactivation V½ / Inactivation τ @−20 mV / Time to peak @−25 mV / Activation V peak: Table 3.2; for Normalized Current Density: relative to vector control (100.0%), Table 3.3
Experimental: Transfection. HEK-293 cells stably transfected with the Cav3.1 α1 subunit were transiently transfected with vectors containing GFP and γ subunits cDNA when the cultures reached 50% confluency. Lipofectamine 2000 reagent (Invitrogen) was used following manufacturer's protocol.
Electrophysiology. Whole cell Ca2+ currents were recorded at room temperature using an Axon Instruments Axopatch-1D amplifier, a Digidata 1200 interface and pClamp8.0 software about 48 hours after transfection. Cell capacitance was typically around 10 pF, but ranged from 5-40 pF. Recording micropipettes were made from borosilicate glass (2-3 Mohms tip resistance), and filled with solution contained (in mM) 130 NaCl, 10 EGTA, 2 MgCl2, 1 CaCl2, 10 HEPES, 3 Tris-ATP, and 0.3 Li2GTP or 0.3 Tris-GTP. Tyrode's solution was used as the bath solution. It contained (in mM) 137 NaCl, 1 KCl, 1 MgCl2, 0.33 NaH2PO4, 2 CaCl2, 10 HEPES. Both solutions were adjusted to pH 7.4 with NaOH and 280 mOsm with sucrose.
We determined the biophysical characteristics of Cav3.1 currents in transfected HEK-293 cells and effects of the first transmembrane domain of γ4 and γ6 on these properties. Test parameters were optimized for studying Cav3.1 current. The time constant (τ) of deactivation (τdeac) was obtained by single exponential fitting of tail currents. For Cav3.1 currents, the cells were clamped at a holding potential of −100 mV, then depolarized to −20 mV for 4 msec, and repolarized to various voltages from −120 mV to −60 mV at 10 mV interval for 150 msec to elicit tail currents.
The voltage dependence of activation was measured using tail currents. For Cav3.1 currents, the cells were clamped at a holding potential equal to −100 mV, and then depolarized briefly to a conditioning potential, varying from −90 mV to +60 mV, and finally clamped at −60 mV before inactivation. Using this protocol, all tail currents are elicited at the same driving force (at −60 mV), so the current amplitude accurately reflects the number of channels opened during the different conditioning potentials.
A series of conditioning prepulses of 500 msec were used to measure voltage dependence of inactivation in our experiments. Channels initially open and then reach steady-state inactivation during the 500 msec long prepulses. The membrane potential is stepped to a fixed test potential of −20 mV, where maximal peak current is elicited. Currents elicited at each test potential reflect how many channels are not in the inactivated state after a steady-state inactivation; that is, how many channels are available to open. The conditioning prepulse potentials were changed from −120 mV to 50 mV, and the test potential is fixed at −20 mV.
Data collection and analysis. To probe the structural features necessary for the function of γ subunits, we are using HEK-293 cell line stably transfected with Cav3.1 α1 subunit. These cells are then transiently transfected with vectors containing various chimeric, truncated or mutant gamma subunits. […] There is inherent variation in calcium current density in the HEK-Cav3.1 stable cell line likely due to differences in the batch used, passenger number, extent of cellular confluence, or for other unknown reasons. The averaged current density of each test group of cells was normalized to the mean current density of a parallel control group of cells plated from the same batch of cells and analyzed on the same day. A minimum of 5 cells (typically 7 to 10) from each group was used to calculate the mean behavior of test and control cells from each days recording. At least two independent transfections were performed for each test condition. Overall, averages were obtained from 21 control groups of cells that had been transfected with empty vector over several months. The data are pooled together to reduce the variance. […] The current density of the control cells over many months justified the pooling of data recorded from different batches of cells transfected with mutated γ subunits. […]

| Molecule | Peak current density | Calcium current density (unit not given) | Activation K | Activation V½ | Deactivation τ @−100 mV | Inactivation K | Inactivation V½ | Inactivation τ @−20 mV | Time to peak @−25 mV | Activation V peak (listed as γ4 1stTM) | Activation V peak (listed as γ4 first transmembrane domain) | Decrease of peak current density from control (TM1 series, vs blank vector) | Activation V peak | Activation V peak (listed as γ6 1stTM) | Normalized Current Density | Normalized Current Density (listed as L43S) |
| --- | --- | --- | --- | --- | --- | --- | --- | --- | --- | --- | --- | --- | --- | --- | --- | --- |
| γ4 TM1: first transmembrane domain of γ4, SEQ ID NO:17 (LLTTAGAFAAFSLMAIAIGT) | 56.34±5.01 pA/pF | −48.3+/−3 | 13.29 ± 0.70 | −29.71 ± 2.03 mV | 2.40 ± 0.22 ms | −5.92 ± 0.12 | −66.17 ± 0.83 mV | 25.5 ± 0.9 ms | 9.00 ± 0.51 | −28.57 ± 0.82 mV | −28.57±0.82 mV | – | – | – | – | – |
| γ6 TM1: first transmembrane domain of γ6, approximately 20 amino acids, SEQ ID NO:12 (KLGLLVAIVGATLAVLAVGT) | 38.65±2.92 pA/pF | −38.6+/−2.9 | 10.85 ± 0.49 | −30.33 ± 2.32 mV | 2.01 ± 0.21 ms | −5.54 ± 0.12 | −62.43 ± 0.65 mV | 24.0 ± 1.3 ms | 11.06 ± 0.97 | – | – | 20% | −26.00±1.00 mV | −26.00 ± 1.00 mV | – | – |
| B1 | – | – | – | – | – | – | – | – | – | – | – | – | – | – | 48.2% | 48.2%±7.2% |
